The values that follow come from publication PMC11754618, “Chemical tools to define and manipulate interferon-inducible Ubl protease USP18” (Nature Communications, 2025).

Common to all, as to conditions: both partners purified
Experiment [1] addresses T1, His6-Hs.USP18 (16-372) (human, UniProt Q9UMW8 16-372).
T1 construct: ubiquitin-specific protease 18 (USP18), human, residues 16-372; Expressed as MBP-tev-His6-USP18 from pDest-795 (Addgene 161881 is the vector); the TEV site was cut, His6 stays; also called human USP18; recombinant human USP18; source: insect cells (baculovirus), purified (IMAC, TEV digest, second IMAC); not shown: MBP, N-terminal, cleaved; His6, N-terminal, kept
T1 sequence (looked up): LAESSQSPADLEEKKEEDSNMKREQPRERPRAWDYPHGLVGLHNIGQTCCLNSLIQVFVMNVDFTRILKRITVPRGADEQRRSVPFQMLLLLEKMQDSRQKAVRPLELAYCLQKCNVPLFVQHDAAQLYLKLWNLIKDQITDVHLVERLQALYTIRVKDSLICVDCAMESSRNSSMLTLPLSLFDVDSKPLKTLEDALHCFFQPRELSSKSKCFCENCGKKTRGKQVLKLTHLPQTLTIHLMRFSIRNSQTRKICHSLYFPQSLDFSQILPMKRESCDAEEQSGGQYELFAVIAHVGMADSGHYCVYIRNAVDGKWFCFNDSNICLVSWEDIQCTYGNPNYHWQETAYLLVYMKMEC
Description: covalent labelling by an activity-based probe (SDS-PAGE); recombinant USP18 (2 μM), USP5 (1 μM) or USP16 (0.45 μM) with Ac-Ubl-PA probes (10 μM), 3 h, room temperature; higher band on SDS-PAGE, SYPRO Ruby staining.

The target of experiment [2] is T2, His6-Mm.USP18 (46-368) (mouse, UniProt Q9WTV6 46-368).
T2 construct: ubiquitin-specific protease 18 (USP18), mouse, residues 46-368; Expressed as MBP-tev-His6-USP18 from pDest-795 (Addgene 161881 is the vector); the TEV site ENLYFQG was cut, His6 stays and serves for capture on the NTA chip; also called mouse USP18; recombinant mouse USP18; source: insect cells (baculovirus), purified (IMAC, TEV digest, second IMAC); not shown: MBP, N-terminal, cleaved; His6, …
T2 sequence (looked up): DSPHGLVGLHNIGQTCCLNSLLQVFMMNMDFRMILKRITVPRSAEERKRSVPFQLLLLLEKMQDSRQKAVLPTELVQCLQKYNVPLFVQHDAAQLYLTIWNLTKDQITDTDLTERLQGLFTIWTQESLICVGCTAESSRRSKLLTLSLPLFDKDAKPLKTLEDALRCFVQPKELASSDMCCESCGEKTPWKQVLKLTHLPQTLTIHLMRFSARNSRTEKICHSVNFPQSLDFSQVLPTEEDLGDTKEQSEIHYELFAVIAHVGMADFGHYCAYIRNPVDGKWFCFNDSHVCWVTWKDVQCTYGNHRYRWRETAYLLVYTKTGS
Described as above.

Experiment [3] has as its target T1, His6-Hs.USP18 (16-372). Description: SPR; BIAcore 3000; mouse and human USP18 immobilised via the N-terminal His6 tag on an NTA chip; 25 °C; 50 mM HEPES, 150 mM NaCl, 0.05 mM EDTA, 0.5 mM DTT, 0.01% P20, pH 7.5; 20 μL/min; Langmuir 1:1 model with drift. Background: In SPR one partner is held on a chip, and binding of the other changes the refractive index at the surface.

Experiment [4] addresses T2, His6-Mm.USP18 (46-368). The description is as above.

B1: Ac-mISG15CTD[WT]-PA (domain or fragment, mouse)
chain: LSILVRNERGHSNIYEVFLTQTVDTLKKKVSQREQVHEDQFWLSFEGRPMEDKELLGEYGLKPQSTVIKHLRLRG
modifications: N-terminal acetyl; C-terminal propargylamine (PA) warhead replacing Gly155
notes: C-terminal domain of mouse ISG15, Leu80~Gly154; also called Ac-mISG15CTD-PA; WT probe; source: synthetic (solid-phase peptide synthesis), RP-HPLC purified
Take B1: the binding result with His6-Hs.USP18 (16-372) [1] and in the experiment with His6-Mm.USP18 (46-368) [2] was “binds” in each case.

B2: Ac-mISG15CTD-OH (wild type) (domain or fragment, mouse)
chain: LSILVRNERGHSNIYEVFLTQTVDTLKKKVSQREQVHEDQFWLSFEGRPMEDKELLGEYGLKPQSTVIKHLRLRG
modifications: N-terminal acetyl
notes: C-terminal domain of mouse ISG15, Leu80~Gly154; also called Ac-mISG15CTD[WT]-OH; source: synthetic (solid-phase peptide synthesis), RP-HPLC purified
As to B2, the binding result with His6-Hs.USP18 (16-372) [3] and with His6-Mm.USP18 (46-368) [4] was “binds” each time.
